# B1: uracil-DNA-glycosylase (UDG) (protein)
# chain: ANELTWHDVLAEEKQQPYFLNTLQTVASERQSGVTIYPPQKDVFNAFRFTELGDVKVVILGQDPYHGPGQAHGLAFSVRPGIAIPPSLLNMYKELENTIPGFTRPNHGYLESWARQGVLLLNTVLTVRAGQAHSHASLGWETFTDKVISLINQHREGVVFLLWGSHAQKKGAIIDKQRHHVLKAPHPSPLSAHRGFFGCNHFVLANQWLEQRGETPIDWMPVLPAESE
# Target: T1, recombinant uracil-DNA-glycosylase inhibitor (rUgi), P14739
# T1 chain: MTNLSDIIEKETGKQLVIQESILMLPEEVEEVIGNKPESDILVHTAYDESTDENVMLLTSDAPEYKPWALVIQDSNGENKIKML
protein,measurement,value
B1,"digestion of DNA-dUTP by UDG 1/35 (agarose gel), without and after 10 min at 90 C","the two dilutions of Ugi indeed inhibit the digestion of DNA by UDG (lanes D and G); after a treatment of 10 minutes at 90° C., the Ugi remains active because it still inhibits the UDG (lanes J and M)"
same,"digestion of DNA-dUTP by UDG 1/35, 60 min at 37 C (agarose gel)",the two dilutions of Ugi indeed inhibit UDG (lanes D and G)
same,"digestion of DNA-dUTP by UDG (agarose gel), UDG 1/25","at the highest concentration of UDG, the UDG activity may be inhibited by Ugi at 1/20 000 but not at 1/30 000"
same,"digestion of DNA-dUTP by UDG (agarose gel), UDG 1/50","at the lowest concentration of UDG, the UDG activity is inhibited both by Ugi at 1/20 000 and at 1/30 000"

# — US20090170166A1
